IntAct's records for PubMed 21979047

B1: Complement factor H (Homo sapiens), P08603 (parent)
chain: MRLLAKIICLMLWAICVAEDCNELPPRRNTEILTGSWSDQTYPEGTQAIYKCRPGYRSLGNVIMVCRKGEWVALNPLRKCQKRPCGHPGDTPFGTFTLTGGNVFEYGVKAVYTCNEGYQLLGEINYRECDTDGWTNDIPICEVVKCLPVTAPENGKIVSSAMEPDREYHFGQAVRFVCNSGYKIEGDEEMHCSDDGFWSKEKPKCVEISCKSPDVINGSPISQKIIYKENERFQYKCNMGYEYSERGDAVCTESGWRPLPSCEEKSCDNPYIPNGDYSPLRIKHRTGDEITYQCRNGFYPATRGNTAKCTSTGWIPAPRCTLKPCDYPDIKHGGLYHENMRRPYFPVAVGKYYSYYCDEHFETPSGSYWDHIHCTQDGWSPAVPCLRKCYFPYLENGYNQNYGRKFVQGKSIDVACHPGYALPKAQTTVTCMENGWSPTPRCIRVKTCSKSSIDIENGFISESQYTYALKEKAKYQCKLGYVTADGETSGSITCGKDGWSAQPTCIKSCDIPVFMNARTKNDFTWFKLNDTLDYECHDGYESNTGSTTGSIVCGYNGWSDLPICYERECELPKIDVHLVPDRKKDQYKVGEVLKFSCKPGFTIVGPNSVQCYHFGLSPDLPICKEQVQSCGPPPELLNGNVKEKTKEEYGHSEVVEYYCNPRFLMKGPNKIQCVDGEWTTLPVCIVEESTCGDIPELEHGWAQLSSPPYYYGDSVEFNCSESFTMIGHRSITCIHGVWTQLPQCVAIDKLKKCKSSNLIILEEHLKNKKEFDHNSNIRYRCRGKEGWIHTVCINGRWDPEVNCSMAQIQLCPPPPQIPNSHNMTTTLNYRDGEKVSVLCQENYLIQEGEEITCKDGRWQSIPLCVEKIPCSQPPQIEHGTINSSRSSQESYAHGTKLSYTCEGGFRISEENETTCYMGKWSSPPQCEGLPCKSPPEISHGVVAHMSDSYQYGEEVTYKCFEGFGIDGPAIAKCLGEKWSHPPSCIKTDCLSLPSFENAIPMGEKKDVYKAGEQVTYTCATYYKMDGASNVTCINSRWTGRPTCRDTSCVNPPTVQNAYIVSRQMSKYPSGERVRYQCRSPYEMFGDEEVMCLNGNWTEPPQCKDSTGKCGPPPPIDNGDITSFPLSVYAPASSVEYQCQNLYQLEGNKRITCRNGQWSEPPKCLHPCVISREIMENYNIALRWTAKQKLYSRTGESVEFVCKRGYRLSSRSHTLRTTCWDGKLEYPTCAKR

Variants of: B1
Settings: with albu_bovin ALB

Variant	effect of a mutation on the interaction
Y402H	decreasing interaction strength
